Measured values from the supplement of paper PMC10724198.
± gives the standard deviation of the averaged measurements.

What follows are sequences tested on Saccharomyces cerevisiae (assay: protein stability index of tFT-peptide fusion (C-terminal peptide) (PSI (0-1 scale)); higher = more stable (slower turnover)). Details: genetic background: wild type; temperature: 30 C.
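Further: PSI is a weighted mean of sequencing reads over stability bins, variants kept only with over 10 reads, mCherry proximal and sfGFP distal, peptide attached via GGGS linker.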

| Sequence | protein stability index |
| --- | --- |
| IRKKIRKKTIYK | 0.798 ± 0.034 |
| WSSGDVRRAKEW | 0.719 ± 0.078 |
| PLPLPPPPHCLS | 0.702 ± 0.027 |
| FRELIRPSKENR | 0.664 ± 0.025 |
| WQMRNGTSRSSL | 0.631 ± 0.012 |
| TLVSCRLVPSSR | 0.671 ± 0.056 |
| VMVGRVLEKGVV | 0.654 ± 0.069 |
| NRGLYNLYRMSR | 0.645 ± 0.0027 |
| EGVGRRICSPQA | 0.648 ± 0.031 |
| TVWCRLKGEGRS | 0.737 ± 0.084 |
| GGEGLRGAAWGI | 0.653 ± 0.12 |
| IGRGAPPGWVGA | 0.704 ± 0.02 |
| GVNMGKIYKIRN | 0.649 ± 0.03 |
| WDGWPTRWGGTG | 0.705 ± 0.017 |
| PHRAPPRETRLG | 0.837 ± 0.015 |
| VAGWGAGREAAY | 0.657 ± 0.026 |
| GYGWGVGGGFGR | 0.691 ± 0.019 |
| FSRLLCPPSFSF | 0.658 ± 0.0072 |
| YCALVSVGVVGG | 0.542 ± 0.0036 |
| PPRFFARPPFRT | 0.6309 ± 0.0059 |
| YCRQVSYERPTK | 0.743 ± 0.077 |
| KCSKGSQGECHV | 0.671 ± 0.05 |
| PFVSGLSGQHEQ | 0.637 ± 0.011 |
| APPAPPLPAIPL | 0.675 ± 0.038 |
| LIALLETRTWRT | 0.676 ± 0.015 |
| KKSKKKSKNIRK | 0.694 ± 0.028 |

| Sequence | protein stability index |
| --- | --- |
| RPPHRRRDKKVS | 0.701 ± 0.031 |
| PPTASPPPLSPL | 0.691 ± 0.083 |
| PGSSLAPAPPPP | 0.683 ± 0.0088 |
| GEGLWGGRGRRW | 0.687 ± 0.046 |
| LRFVTAGEFEMK | 0.635 ± 0.061 |
| SPPPLPPPLSRP | 0.638 ± 0.067 |
| PPTLRRGSTFYH | 0.6788 ± 0.0016 |
| TPRPPQPGLSRT | 0.67 ± 0.027 |
| AAGPILAFSVAC | 0.638 ± 0.039 |
| GAFRQGYCLSGL | 0.67 ± 0.025 |
| LKLHDSNESASR | 0.651 ± 0.03 |
| TVNIIREEKAGG | 0.68 ± 0.031 |
| FSLLSSSSFFVL | 0.591 ± 0.01 |
| FCCRLSGFSILG | 0.663 ± 0.033 |
| PPPPPPPPAPPY | 0.725 ± 0.017 |
| SPPPPPPAPPPP | 0.664 ± 0.042 |
| ILSRTEGHCLII | 0.739 ± 0.074 |
| SARPTVNRPARN | 0.6933 ± 0.0049 |
| YTSRLGRGILHV | 0.671 ± 0.031 |
| RSRPPVHVAAAL | 0.673 ± 0.074 |
| PFLPSPHPSPSS | 0.713 ± 0.022 |
| SCVAGSSHWTSI | 0.712 ± 0.24 |
| AFGCGGVPGDFA | 0.63 ± 0.015 |
| AFSTGSIILEPR | 0.646 ± 0.016 |
| VSTLAPPQLQFK | 0.669 ± 0.081 |
| PAPPPSSPRSIH | 0.674 ± 0.032 |

| Sequence | protein stability index |
| --- | --- |
| KWEGKKINKKRE | 0.699 ± 0.077 |
| NCRGNLDFGPLV | 0.727 ± 0.042 |
| SLRLSRFLLTAP | 0.5536 ± 0.0031 |
| PPAPPAFPRFGT | 0.703 ± 0.0051 |
| VGFPLVSSPLRL | 0.566 ± 0.059 |
| PPPAPSPPPSPP | 0.611 ± 0.0099 |
| MYASVGAIHPRL | 0.738 ± 0.074 |
| DTIQFLQCYRPI | 0.655 ± 0.035 |
| VWFDPHEFIVIA | 0.59 ± 0.027 |
| GGGAGGAVRRAS | 0.6932 ± 0.005 |
| PLPPPPFSVSPP | 0.724 ± 0.012 |
| GNFYFSGSGFFI | 0.709 ± 0.031 |
| GLCGFLLIETLL | 0.64 ± 0.0085 |
| GVGQGGPVVVGR | 0.665 ± 0.024 |
| GVVRSSRRYSFR | 0.705 ± 0.034 |
| EKHNNNRYKQYL | 0.7255 ± 0.0052 |
| PLVFFAGLFLVD | 0.509 ± 0.041 |
| CMRVGGWFLFSL | 0.661 ± 0.051 |
| MENEDYIVRKKK | 0.73 ± 0.054 |
| EVGQLQPNGGWV | 0.661 ± 0.033 |
| FLSRPIGAAIWA | 0.543 ± 0.026 |
| GSGALGAGRASR | 0.723 ± 0.017 |
| IIRINSKMGSRK | 0.725 ± 0.0078 |
| QIGTVDEWTQQA | 0.738 ± 0.12 |
| GEGTERLGKSTR | 0.651 ± 0.046 |
| VVFSPQFRLPVP | 0.66 ± 0.024 |

| Sequence | protein stability index |
| --- | --- |
| QLYKLKNMKKKN | 0.675 ± 0.0085 |
| PPSPPPTPFPPS | 0.651 ± 0.1 |
| PVPLPSPFPLPL | 0.664 ± 0.0093 |
| ITLSCFPRPFPL | 0.691 ± 0.02 |
| WTFVRTPERSEI | 0.719 ± 0.0089 |
| RLAYSSGKAFRV | 0.702 ± 0.012 |
| CVLVVGVPAGGG | 0.611 ± 0.028 |
| PPRCPLPPLSPP | 0.701 ± 0.11 |
| CSTFFVRSLSFI | 0.63 ± 0.034 |
| CLPLSPPVPHLR | 0.738 ± 0.12 |
| VEAVSLVFLYGV | 0.552 ± 0.012 |
| PSLPVPPTLCPI | 0.675 ± 0.062 |
| VSCPGWVVHVIV | 0.48 ± 0.079 |
| PRPLPSPPHPRP | 0.71 ± 0.026 |
| LSSPPSPRAFLP | 0.723 ± 0.065 |
| ADYSRHSCSSSP | 0.681 ± 0.053 |
| LVFAAGCVGGVR | 0.633 ± 0.021 |
| GFCRWVRRDDCI | 0.693 ± 0.032 |
| GARSRLFRWWVA | 0.601 ± 0.012 |
| DDFQVFCSNGMG | 0.708 ± 0.018 |
| KQDTRRHIHTTK | 0.735 ± 0.092 |
| KSSNYSTEDVKI | 0.697 ± 0.014 |
| ECGGAVALSDRA | 0.7672 ± 0.0018 |
